This assay concerns the target HLA-A*02:01 (Homo sapiens, UniProt P04439, D140Y/D185E/D98H/E176V/E277Q/G131W/G231S/I119V/I121R/I166T/I218V/L300P/L318F/N151K/N90K/P208A/P217A/Q86G/Q94H/R138H/R169H/T345S). As to the kind of experiment: MHC binding assay (UV-ligand exchange, β2m ELISA, peptide exchange yield). As to conditions: binding to HLA-A*02:01 ranged by peptide exchange yield (UV-ligand exchange, β2m ELISA). The text has this: Candidate peptides for T cell based therapies according to the present invention were further tested for their MHC binding capacity (affinity). The individual peptide-MHC complexes were produced by UV-ligand exchange, where a UV-sensitive peptide is cleaved upon UV-irradiation, and exchanged with the peptide of interest as analyzed. Only peptide candidates that can effectively bind and stabilize the peptide-receptive MHC molecules prevent dissociation of the MHC complexes. To determine the yield of the exchange reaction, an ELISA was performed based on the detection of the light chain (β2 m) of stabilized MHC complexes. The assay was performed as generally described in Rodenko et al. (Rodenko et al., 2006).
96 well MAXISorp plates (NUNC) were coated over night with 2 μg/ml streptavidin in PBS at room temperature, washed 4× and blocked forth at 37° C. in 2% BSA containing blocking buffer. Refolded HLA-A*02:01/MLA-001 monomers served as standards, covering the range of 15-500 ng/ml. Peptide-MHC monomers of the UV-exchange reaction were diluted 100 fold in blocking buffer. Samples were incubated for 1 h at 37° C., washed four times, incubated with 2 ug/ml HRP conjugated anti-β2 m for 1 h at 37° C., washed again and detected with TMB solution that is stopped with […]. Absorption was measured at 450 nm. Candidate peptides that show a high exchange yield (preferably higher than 50%, most preferred higher than 75%) are generally preferred for a generation and production of antibodies or fragments thereof, and/or T cell receptors or fragments thereof, as they show sufficient avidity to the MHC molecules and prevent dissociation of the MHC complexes.
In general terms: ELISA stands for enzyme-linked immunosorbent assay.

With “115 (SLLDFERSL; listed as Homo sapiens) [compound 115]”, the Peptide exchange entry is “+++ (>50 = +++)”. Consider “95 (YLIGQHVTA; listed as Homo sapiens) [compound 95]”, for which the Peptide exchange entry is “++++ (>75% = ++++)”.

Take “7 (QMFEGQILDV; listed as Homo sapiens) [compound 7]”: the Peptide exchange result is reported as “+++ (>50 = +++)”.

Turning to “44 (GLAQDPKSLQL; listed as Homo sapiens) [compound 44]”, the Peptide exchange result is listed as “+++ (>50 = +++)”. For the substance “74 (LLQEGEVYSA; listed as Homo sapiens) [compound 74]”, the Peptide exchange entry is “+++ (>50 = +++)”. For “94 (ALADGVPVAL; listed as Homo sapiens) [compound 94]”, the Peptide exchange result is given as “+++ (>50 = +++)”. Regarding “80 (ILLDTPLFLL; listed as Homo sapiens) [compound 80]”, the Peptide exchange result is given as “+++ (>50 = +++)”. For “38 (TLTSIIVAV; listed as Homo sapiens) [compound 38]”, the Peptide exchange entry is recorded as “+++ (>50 = +++)”. “43 (FLIESKLLSL; listed as Homo sapiens) [compound 43]”: the Peptide exchange result is “++++ (>75% = ++++)”. “13 (FLEEKEQAAL; listed as Homo sapiens) [compound 13]”: the Peptide exchange result is reported as “+++ (>50 = +++)”. As to “56 (ILLRDLPTL; listed as Homo sapiens) [compound 56]”, the Peptide exchange result was “+++ (>50 = +++)”. For “26 (GLALLYSGV; listed as Homo sapiens) [compound 26]” the value was “++++ (>75% = ++++)”.

In the case of “127 (KLNATNIEL; listed as Homo sapiens) [compound 127]”, the Peptide exchange result is “+++ (>50 = +++)”. Regarding “147 (QMLELITRL; listed as Homo sapiens) [compound 147]”, the Peptide exchange result is “+++ (>50 = +++)”. Take “138 (YLTNEGIQYL; listed as Homo sapiens) [compound 138]”: the Peptide exchange result is given as “+++ (>50 = +++)”. Turning to “89 (YLFPETEFI; listed as Homo sapiens) [compound 89]”, the Peptide exchange result is listed as “+++ (>50 = +++)”. On to “121 (QLQGYLRSV; listed as Homo sapiens) [compound 121]”, for which the Peptide exchange entry is “+++ (>50 = +++)”.

For the substance “90 (GMTELYFQL; listed as Homo sapiens) [compound 90]”, the Peptide exchange result is given as “+++ (>50 = +++)”. Consider “3 (YLDEIPPKFSM; listed as Homo sapiens) [compound 3]”, for which the Peptide exchange entry is reported as “++++ (>75% = ++++)”. In the case of “12 (GVALTVTGV; listed as Homo sapiens) [compound 12]”, the Peptide exchange entry is on record as “++++ (>75% = ++++)”. On to “97 (TVGPGLLGV; listed as Homo sapiens) [compound 97]”, for which the Peptide exchange result is reported as “+++ (>50 = +++)”. Regarding “21 (TLIEDDALNGA; listed as Homo sapiens) [compound 21]”, the Peptide exchange result was “+++ (>50 = +++)”. Turning to “122 (ILEPSLYTV; listed as Homo sapiens) [compound 122]”, the Peptide exchange entry was “++++ (>75% = ++++)”. Consider “113 (FVFEPPPGV; listed as Homo sapiens) [compound 113]”, for which the Peptide exchange entry was “++++ (>75% = ++++)”.

Take “119 (SLDEKQNLV; listed as Homo sapiens) [compound 119]”: the Peptide exchange result was “+++ (>50 = +++)”. As to “77 (KVFGGFQVV; listed as Homo sapiens) [compound 77]”, the Peptide exchange result is on record as “++++ (>75% = ++++)”. “34 (ALLDEQQVNV; listed as Homo sapiens) [compound 34]”: the Peptide exchange entry is “+++ (>50 = +++)”. Consider “68 (TMIVSLAAV; listed as Homo sapiens) [compound 68]”, for which the Peptide exchange entry is recorded as “+++ (>50 = +++)”. For “140 (ALLDGRVQL; listed as Homo sapiens) [compound 140]”, the Peptide exchange entry is “++++ (>75% = ++++)”.

Consider “31 (SLFDGIATGL; listed as Homo sapiens) [compound 31]”, for which the Peptide exchange entry was “++++ (>75% = ++++)”. For “108 (YLDPNQRDL; listed as Homo sapiens) [compound 108]”, the Peptide exchange entry is reported as “+++ (>50 = +++)”.

Consider “32 (YQAPDIDVQL; listed as Homo sapiens) [compound 32]”, for which the Peptide exchange entry is recorded as “+++ (>50 = +++)”. With “73 (VLKVFLENV; listed as Homo sapiens) [compound 73]”, the Peptide exchange result is reported as “++++ (>75% = ++++)”. For “137 (ALFPHLLQPVL; listed as Homo sapiens) [compound 137]” the value was “++++ (>75% = ++++)”; for “136 (GLSEPIFQL; listed as Homo sapiens) [compound 136]”, “+++ (>50 = +++)”.

In the case of “102 (GLYEGLDWL; listed as Homo sapiens) [compound 102]”, the Peptide exchange result was “+++ (>50 = +++)”. In the case of “54 (ALNDEINFL; listed as Homo sapiens) [compound 54]”, the Peptide exchange result was “+++ (>50 = +++)”. Under “62 (GQLDFSEFL; listed as Homo sapiens) [compound 62]” stands “+++ (>50 = +++)”; under “145 (ALYPGQLVQL; listed as Homo sapiens) [compound 145]”, “+++ (>50 = +++)”; under “101 (ILDEMRAQL; listed as Homo sapiens) [compound 101]”, “+++ (>50 = +++)”. Consider “135 (FLLPLIIVL; listed as Homo sapiens) [compound 135]”, for which the Peptide exchange entry is on record as “+++ (>50 = +++)”. Turning to “139 (LLYPTEITV; listed as Homo sapiens) [compound 139]”, the Peptide exchange entry was “+++ (>50 = +++)”. Take “8 (ALSFSSSAGPGLLKA; listed as Homo sapiens) [compound 8]”: the Peptide exchange result was “+++ (>50 = +++)”. Consider “37 (ILSAILVHL; listed as Homo sapiens) [compound 37]”, for which the Peptide exchange result is “+++ (>50 = +++)”. For “134 (IVAPGTFEV; listed as Homo sapiens) [compound 134]” the value was “+++ (>50 = +++)”; for “99 (ALIGDDVGL; listed as Homo sapiens) [compound 99]”, “+++ (>50 = +++)”; for “85 (HLLDSKVPSV; listed as Homo sapiens) [compound 85]”, “+++ (>50 = +++)”. For “64 (GLLSQGSPL; listed as Homo sapiens) [compound 64]” the value was “+++ (>50 = +++)”. Turning to “19 (SLATTLTKI; listed as Homo sapiens) [compound 19]”, the Peptide exchange result is listed as “+++ (>50 = +++)”. For “103 (GLYSGEVLV; listed as Homo sapiens) [compound 103]” the value was “++++ (>75% = ++++)”.

Values taken from US12084522B2, “Peptides, combination of peptides, and cell based medicaments for use in immunotherapy against urinary bladder cancer and other cancers” (Immatics Biotechnologies GmbH, priority 2016, dated 2024).
